The values below come from PMC6152768, “Dynamic Allostery Modulates Catalytic Activity by Modifying the Hydrogen Bonding Network in the Catalytic Site of Human Pin1” (Molecules : A Journal of Synthetic Chemistry and Natural …, 2017).

As a reminder, the Kd is the concentration at which binding is half-saturated. By stoichiometry N is commonly meant a count of units in the complex or per binding partner.

The target of this assay is wild-type human Pin1 PPIase domain (human, UniProt Q13526 1-163). In words: ITC; 1.5 uL injections of 10 mM Cdc25C phosphor-peptide into 200 uL of 0.2 mM wild-type or S138A Pin1 PPIase domain in the cell; Microcal Auto iTC200; single-site fit with the stoichiometry fixed to n = 1; in triplicate; buffer and temperature not stated. To be noted: both partners purified.

Square brackets hold non-standard residues; d marks the D form. Ends that are not written are not given here. pT = C[C@@H](OP(=O)(O)O)[C@H](N)C(=O)O

Chain of wild-type human Pin1 PPIase domain (Q13526 whole entry, the tested form may be a part): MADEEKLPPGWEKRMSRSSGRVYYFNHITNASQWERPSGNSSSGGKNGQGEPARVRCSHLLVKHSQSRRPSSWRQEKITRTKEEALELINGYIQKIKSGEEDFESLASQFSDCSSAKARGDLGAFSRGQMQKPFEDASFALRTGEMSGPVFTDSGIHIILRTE

B1: phosphor-peptide Cdc25C (EQPLpTPVTDL) (peptide)
peptide: EQPL[pT]PVTDL
notes: Phosphopeptide named Cdc25C; also called phosphorylated peptide Cdc25C; Cdc25C phosphor-peptide; source: bought: Funakoshi (Tokyo, Japan), used without further purification
Take B1: binding was characterised by a dissociation constant (Kd) of 1810 ± 290 µM and the “stoichiometry N” value worked out at 1 ± 0.001.
